Target: recombinant human VEGF-A (human) (UniProt P15692)
Experiment: cell-based or functional assay

Chain of recombinant human VEGF-A (human) (P15692 other isoform, or with tags, fused parts or gaps limits assumed): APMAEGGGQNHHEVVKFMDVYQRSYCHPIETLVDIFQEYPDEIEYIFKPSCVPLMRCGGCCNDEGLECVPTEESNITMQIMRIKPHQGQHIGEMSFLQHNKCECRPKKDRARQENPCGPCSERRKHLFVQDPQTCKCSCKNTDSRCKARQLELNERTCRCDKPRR

VEGF induced cell integrity loss IC50: 0.33 nM
Substance: Eylea (aflibercept), VEGF trap (Fc fusion)

— patent US20230416378A1
